Test results from patent publication US20140289906A1, “Compositions Having Dicamba Decarboxylase Activity and Methods of Use” (priority 2013, published 2014).

B1: 76 (protein, listed as Polymorphum gilvum)
chain: MAKKIDIFNHIWPEPFFKALIAHIGEMTDITMRSGAVPMMTNLDRRFEVMDMFGPDYMQVLSLASPPLEKLADPAKALELSRIGSDSLAELCQRYPERFPAFIGTAPLSNPAAVVGECRRAIEDLGAAGMQIFTNVAGKPLDLAEFEPFFEYMASAGKPVWLHPARGEAFADYQTEKRSEYEIWWTFGWPYETSAAMARLVFSRMFDKYPGLKVITHHAGGMVPFFEGRVGPGWDQMGARTTDRDLAAVRKALKRPHLDYFKEFYADTASFGSRKAIEHAIEFFGEDRVLFASDAPFDPEGGPMYIRETMRCIDSLDLTDAQRRKIYHGNATALLGLSL
B2: 6 (protein)
chain: MAEILSPEESIYYSKLSNDILAEGIKKNPTRFRGFAALPTPDPIQAAMELERCIKLGGFVGAIINGHINGHYLDEIQFDPILEAADALDVPLYIHPAVPPKAIIDTYYKMNDTYAQTVMVSGGWGWHIETGVHVLRLISSGVFDRHPNLKIVIGHLGEGLPFFMHRLNNAIGGNLKKSYSTYLKENIYYTISGFNDPDLFQFVLKKVGENNIMFSSDYPFNFPKREVELFNELNISEEVREKISFKNAERILKI
modifications: Treponema brennaborense
B3: 84 (protein, listed as Mycobacterium rhodesiae)
chain: MASLIALEEHYAWDPASEGNVVATWLRANNGVAYDRLYDRGPLRIEQMDAAGIDFQILSLFDPGVQDEVDAVRAVDLARRANDDLAESVRANPSRFGGFATLATQQPDAAVAEFDRAVTELGLVGGLINGHCQGRYLDDPAYEALFSRAEALGAPIYLHPTTPHPAVMDAWFAPYVGDGLHLASWGFAAETGTHVLRLIYSGLFDKFPRLQMIIGHLGEMLPFAAYRIDRYYGLGGGGTGHTLQHLPSDYLRNNFHVTTSGNFCSPALDCTLDVMGADRVMFSVDYPMDDNQTGADFLASYPMDDTNRRKVASENALRLFGDRIPAALRN
B4: 85 (protein, listed as Maritimibacter alkaliphilus)
chain: MAADRKPGLVSVEEGFMIPEVVAELSRIAGGVPSMKSGPIAGPFMDDLLDIGKGRVARMDADGVAVQILALAAPGVQKFDPDTALALSRLTNDRLAEAIAAHPARFGGLAAAPPQAAREGAKELDRAITTLGLNGLIVNSHTNDLYLDDPSFWPLLEAAEALDVPVYLHPREPAAGIEGGLMAMTGFTVGWAYAVETGTHLLRMIAAGVFDRFPRLRIVLGHLGEMIPFMLDRIDNRYPFEMGVTGAKPLPRKPSDYFRDHVTVATSGMNFNAPMRAAIEVLGADKVMFAADYPMERQDEEVAKFAALDLTPDERKRIGEDNARRVFGL
B5: 83 (protein, listed as Mycobacterium rhodesiae)
chain: MALIALEEHYAWSPVSAGNVVGSWLETHNVTAYQRLYDRGPLRLEQMDAAGIDFQILSLFDPGVQDDDDTARAVENARRANDDLAETVRAAPDRFGGFATLAPQDPDAAAAELERAVGELGLVGGLINGHTHGRYLDDPAYLGLFECAQRLGVPIYLHPTTPHPAVMDAWFAPYVKDGLHLASWGFAAETGTHALRLIYSGLFDTFPRLQMILGHLGEMLPYAAYRIDRYYGLGGGDDGGRLARLPSEYLRDNFHVTTSGNFNPVAFACALDVMGPDRLMFSVDYPMDDNVTGAEFLRNLEVDDDVRRKVAGENALQLFGDKIPRR
B6: 90 (protein)
chain: MAATIDRVLYLGNATQRRYTSATVSVPRIFGKVALEEHVGTSIWAKYNLTPPANAVVGVLNRPPTLPNTLDTIARLDDINGRLSSMNHSGIGYVIVSLSSPGIQGVHDTALAIKFSTDINDELYLKYANAYPDKFAFFATVPMQDPVAAASELERAVSLLGAKGAAINGYTDIGPPGNSTTRYLDDPINAPFWSKVAALNVPIYLHPRAPPPSQQLVYNYPNNSLSAYPGLVTGGFAYGAETAVHALRLMLSGLFDTHPNIQIILGHAAEGLPFLIHRSDTQLAAEVPGTNGPYKRPLRYYLRNNFYATLSGVRRLSTTQCTLAEMGEERVLFSVDYPFQSNEDAADWFDGVEGMSVETKRKVARGNARRLFNLTVDLDERQIDGDFM
modifications: Pyrenophora tritici-repentis
B7: 77 (protein)
chain: MALIDLHAHAPHPGYYNQHPHWGPFFERHEDGDVKLRVGDWILTLGSPERKALVRAGKGPTVEEYQARWADPKVRLAGMDAAGQNAQVVSVPSHCYMYWAEKEFSVPFATKVNDTFAEYCSAAPDRLMFWAHAALNAPEQAALELRRACTELGAKGLVAGGANFGGLEFDSPELDPVWKVLCDLDLPMFIHGYNQSVTWGKKANDDRYETTAIVGMQYDETRCFWNLVCGGVLDRFPGLKVYITHGGGYVPYQLGRLAQCNGNLDVAHNKKPVLEYLKNNFYFDVELHEVPMRQALIDIIGADRVLYGSNFGGSDAVRHDLTEGLRLSDDDLQKIRWKNACKLLHLDPAKIGEPAKKQAVSA
modifications: Burkholderia xenovorans
B8: 94 (protein, listed as Bacillus thuringiensis)
chain: MANRGDSNMKSLVGVIMGSTSDWETMKYACDILDELNIPYEKKVVSAHRTPDYMFEYAETARERGLKVIIAGAGGAAHLPGMVAAKTNLPVIGVPVQSKALNGLDSLLSIVQMPGGVPVATVAIGKAGSTNAGLLAAQILGSFHDDIHDALELRREAIEKDVREGSELV
B9: 80 (protein, listed as Cordyceps militaris)
chain: MAAASTPVVVDIHTHMYPPSYIAMLEKRQTIPLVRTFPQADEPRLILLSSELAALDAALADPAAKLPGRPLSTHFASLAQKMHFMDTNGIRVSVISLANPWFDFLAPDEAPGIADAVNAEFSDMCAQHVGRLFFFAALPLSAPVDAVKASIERVKNLKYCRGIILGTSGLGKGLDDPHLLPVFEAVADAKLLVFLHPHYGLPNEVYGPRSEEYGHVLPLALGFPMETTIAVARMYMAGVFDHVRNLQMLLAHSGGTLPFLAGRIESCIVHDGHLVKTGKVPKDRRTIWTVLKEQIYLDAVIYSEVGLQAAIASSGADRLMFGTDHPFFPPIEEDVQGPWDSSRLNAQAVIKAVGEGSSDAAAVMGLNAVRVLSLKAE
B10: 78 (protein, listed as Marinobacter adhaerens)
chain: MALIDLHAHAPHPDYYDQHPHWGPAFELQSDGDIKLRVGHWVLSLGAPERKQALREAHARGETLDVQEYMAKWRDPEHRLASMDAAGQNAQVLSVPSHCYMYWAEPEFGVPFAKKVNDSLAEYCSAAPDRLMFWAHAPLNVPKEAAKEIRRACTELGAKGLVAGGSNFGGLEFDSPEMDPVWEALCDLDLPMFVHGYNQSVTWGEEANTDRYETTAIVGMNYDESKCFWYMINGGVFDRFPNLKVYITHGGGFVPYQLGRMAQTNPNLDTYHNKKPFLEYLKNFYFDVELHEVPMRQAMVEVIGADRVLYGSNFGGSDAVRHDLTDDLKLSQEDLDKIRWKNACDLLHLDPNKLGKVRG
B11: 93 (protein, listed as Mucilaginibacter paludis)
chain: MAKYGKHITINKNMRIVTLEEHISFPEMADQIPKAALGSFGRSEAMQRIAPKLADITGERLKSMDANGISMQVLSVDSSGVNLLSPQQGPAFATQYNDLIANRIAGFEKRFTAFAHLPMTAPFAAADELERAVKEHHFCGAMIRGLTGDQFLDHPQFAPIFERAQKLDVPIYLHPGLPPKGVADIYYSGLPNYSGMAEALACYGWGWHSETALHVLRLLFSGIFDQYPKLKLVIGHMGEMLPMMMARSEKAFKPGNGGANVRTLTDTFRSQVYLTTSGFFTQPPLKIALDTFGIDHVMFSVDYPFSTNEMGIEFLNEIDLPDEEVARIAHGNADKLLNLKA
B12: 7 (protein, listed as Legionella pneumophila)
chain: MAIVDFETHFITEACIDYLTQRQEVPKLVPELNGAYTMCFTPDVSLFHTSALMEELLSLNEQRLAIMDQAGVTIQVLSLTTINGIDSCPGDENKSTALAREVNDQLYSAIQRHPERFKGFASISPYDVKEGVKELERAISQLGFVGWLTHSNFGEDNYLDDKTYWPLLEAAEGLNIPIYLHPNVPIMREFGKYGFALGGSALGFEFDTALCLMRMILGGVFDAFPKLKIMLGHLGETMPFLMERLDHLYRIPDLKAYRPSIQRIPSEVLRQNVYITTSGRFFVPALRYVLEVMGEDRVLFASDYPMESLLDATRFIQDSDLSNQTKQKIFSINAKNLNLI
B13: 82 (protein, listed as Rhodopseudomonas palustris)
chain: MAQNETPVIAIEEHYWDPEMVARFPAGENASPFSTLLTELGDVRLRAMDEAGIDVQVLSHGAPAAQKLPPDVAPELTRRVNDRLAEACARFPNRFAAFAALPTPAPEAAARELERCVRDLGFKGAMIHGLTNGLFIDDKRFWPIFEVAEKLDVPIYLHPSVPHADVTRYYYDDYAREFPTVIRPAWGFTVETATQAIRLILSRALESYPRLQIILGHLGETLPFLLWRINQALARPGQTPLDFRKQFCDHFHVTTSGFFSTPALICTMLELGIDRIMFAVDYPYVVNRDGTDWVQQLQISPDDKRKLVGGNARRLLKL
B14: 91 (protein, listed as Botryotinia fuckeliana)
chain: MASFVCNFGKAALATLLLTPSISAADYTPQETVLNSGRPTFYDASTSIPGKIALEEHVGNDLLNGLYTVPYYPNTNEPQYSDSVYIADVGEKMLDIPSRIANMDAANISISVLTFGGPGIQGVFNATYATYAAGYVNDYLYKNYKNNANYTGRFEFWCSNALQEPSKAATELERCVKELGGVGSFVGGYTNNGGINGTANDIVYLDDPSMEPFLEKVVELDVPIYLHPRMPAPSQLLSVKGYEFLGSSPWGFSSETGAHALRLMVSGTLDKYPTLKIVLGHCGEGLPFFLPRIDQRLRHFKKELFNNTLTMEEYWLRNFYVTTAGVQDAGTLVDTIKRTGEDRVMFSVDYPFEDTVEIAGWFDRLEMNTLTKTKLAYENAKALLKLTCYVDAEKRPRIFNKHHVDDIIKHTHSPCIWTLFH
B15: 86 (protein, listed as Sphingopyxis alaskensis)
chain: MALGASVASREASAQMAKAPMRKIATEEAFATPELAKAWLEIARSEPNSSLDIPTGILSIFDNPRPGSNQDRFRRQLLDVDAERIRDMDEAGVDMQLLSVTIPGVQIFEPARAGELAVTTNDHLAAAIARRPTRFAGLACFAPHDPVQATREMERAVNALGLKGFIVNSHTQDLYLDDPRFAPVLEAAQSLDCPIYLHPRAPSNGMAAPFRDYSMGGSIWGFGVEAGTHAVRMILSGVFDRYPRLRIVLGHMGEALPFWMWRLDHMAARRAKDGRMKPLSLAPSEYFKRNFAVTTSGFESPDVLDLVIKVAGIENIMWAIDYPYESSRDAVTFIEGADLTASQRASIFHRNAVRHFRLS

Test: 14C assay: 14CO2 capture from [14C]-carboxyl-labeled dicamba with IPTG-induced recombinant E. coli cells
Conditions: IPTG-induced recombinant E. coli cells; 14CO2 from [14C]-carboxyl-labeled dicamba
For B1, the “Dicamba Decarboxylase Activity” value was “No”.
With B2 the “Dicamba Decarboxylase Activity” value was “No”.
For B3, the “Dicamba Decarboxylase Activity” value was “Low”.
With B4 the “Dicamba Decarboxylase Activity” value was “Low”.
In the case of B5, the “Dicamba Decarboxylase Activity” value is reported as “Low”.
In the case of B6, the “Dicamba Decarboxylase Activity” value is reported as “Low”.
For B7, the “Dicamba Decarboxylase Activity” value was “No”.
For B8, the “Dicamba Decarboxylase Activity” value was “No”.
In the case of B9, the “Dicamba Decarboxylase Activity” value is reported as “Low”.
With B10 the “Dicamba Decarboxylase Activity” value was “Low”.
In the case of B11, the “Dicamba Decarboxylase Activity” value is reported as “Low”.
For B12, the “Dicamba Decarboxylase Activity” value was “No”.
For B13, the “Dicamba Decarboxylase Activity” value was “Low”.
In the case of B14, the “Dicamba Decarboxylase Activity” value is reported as “Low”.
In the case of B15, the “Dicamba Decarboxylase Activity” value is reported as “Low”.

Same assay, conditions: dicamba decarboxylation activity
With B1 the “Enzymatic Detection level” value was “No”.
With B2 the “Enzymatic Detection level” value was “No”.
With B3 the “Enzymatic Detection level” value was “Low”.
For B4, the “Enzymatic Detection level” value was “Low”.
With B5 the “Enzymatic Detection level” value was “Low”.
In the case of B6, the “Enzymatic Detection level” value is reported as “Low”.
For B7, the “Enzymatic Detection level” value was “No”.
With B8 the “Enzymatic Detection level” value was “No”.
For B9, the “Enzymatic Detection level” value was “Low”.
For B10, the “Enzymatic Detection level” value was “Low”.
In the case of B11, the “Enzymatic Detection level” value is reported as “Low”.
For B12, the “Enzymatic Detection level” value was “No”.
For B13, the “Enzymatic Detection level” value was “Low”.
With B14 the “Enzymatic Detection level” value was “Low”.
With B15 the “Enzymatic Detection level” value was “Low”.
